Data: the supplement of paper PMC12764529
± gives the half width of the 95% confidence interval.

What was measured:
[1] = folding stability dG unfold from trypsin proteolysis; higher = more stable
How it was run: (§1)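 Designed mini-proteins with no cysteine and under 80 residues were kept only if AlphaFold2 dimer inter-PAE was above 15. In a PA-tagged cDNA display construct, they were digested with trypsin and chymotrypsin and then sequenced. K50 was inferred by Bayesian fitting of counts, and unfolding free energy was derived per protease or combined against a sequence-predicted unfolded-state K50 and a shared folded-state K50.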

[2] = folding stability dG unfold from chymotrypsin proteolysis; higher = more stable
How it was run: as §1

[3] = folding stability dG unfold (combined trypsin and chymotrypsin); higher = more stable
How it was run: as §1

Row | Sequence | folding stability dG unfold [1] [kcal/mol] | folding stability dG unfold [2] [kcal/mol] | folding stability dG unfold [3] [kcal/mol]
1 | SAGMTLTLELPVPPDMSEEEARALALARVREEVAALSPGGATVTPVAVSVDPETGTVSLEVEVEVPPLASAG [r5_146_JUSTAS] | 1.17 ± 0.032 | 1.45 ± 0.042 | 1.35 ± 0.037
2 | SAGGSAGGELELELTVRLPNGLEVRIRARVKFDEETNEWTITEIEIEIRPLPPPPVLDKDGKLVSAGGSAGG [r6_506_TrROS_Hall] | 3.24 ± 0.19 | 3.04 ± 0.31 | 2.93 ± 0.47
3 | SAGGSAGGSAGGSFKVTYFPGEKLLAVTFPDGSKKIFKIDDKGNPTIIAVIDPDKGKVLPSAGGSAGGSAGG [r7_659_TrMRF] | 1.86 ± 0.034 | 2.622 ± 0.02 | 2.35 ± 0.051
4 | SAGGNKNGKPKPTVPFKIMVMKPKPRRNDNNGQEEPRYDMRPVEIEFPLGEEIDLEEALENPDYIFIMSAGG [r13_753_TrROS] | -0.0176 ± 0.14 | 0.276 ± 0.18 | 0.199 ± 0.15
5 | MKTIEIEIKLSPEIKEALKEGKPLSLEELVNKIKEEIAKKLGLKEVKVKKIEIKKDENGEIIIKVTIEVKPS [r1_290_TrROS_Hall] | 3.9 ± 0.38 | 2.77 ± 0.091 | 3.31 ± 0.27
6 | SAGGSSSSMVVVTLTFPPDVSPEEVIEKIAATPGVGAQPISYDPATGTFTIRVGSTDPKAVEEVLGSAGGSA [r2_305_JUSTAS] | 0.878 ± 0.022 | 0.562 ± 0.17 | 0.748 ± 0.074
7 | SAGMPVITTTEELPGGLTVTTTTYPPGDTTTTVTSPEGNVTTTTTTTTPTPTPTTTTTTTTTTTPVPPASAG [r5_944_JUSTAS] | 1.56 ± 0.14 | 1.26 ± 0.099 | 1.44 ± 0.26
8 | SAGGSAGGSDLPIKIKMEPIPPGMPPGQVYRMEIEIPNGWVIRYSFYFTGGKLEFEPMEIKPVSAGGSAGGS [r12_1049_TrROS] | 2.22 ± 0.19 | 3.58 ± 0.08 | 3.13 ± 0.28
9 | SAGGSAGGSATATVTPHEGAWTVTVTGPDSTETFTFEADEETVREFVELLKAPDVDIDPVPGSAGGSAGGSA [r18_103_TrMRF] | 1.79 ± 0.07 | 1.12 ± 0.096 | 1.46 ± 0.086
10 | SAGKPKKKIKIKLYNVDTGEEIEIEVTVEELKKLLEKLGFEVVKIEYDEETGEVTIYVKVDGYYLEIEESAG [r5_521_TrROS_Hall] | 2.63 ± 0.16 | 3.55 ± 0.13 | 3.41 ± 0.28
11 | SAGGSAGGSAGMETIRLTFTVPGPDDRYYRVSVEARINPPTGEIEILRVEITPLDNPDAISAGGSAGGSAGG [r11_777_TrMRF] | 3.09 ± 0.12 | 3.93 ± 0.035 | 3.69 ± 0.052
12 | SAMEINIVLVAPPESPEALELAKEVAELVAKEIEEEGIPVEVEVEKIEFFRLPDGSIVVLIPIKVKPPESAG [r14_48_TrMRF] | 1.89 ± 0.1 | 3.27 ± 0.074 | 2.63 ± 0.19
13 | SAGGSAGGSAGEVEFELTVKLTVTHPSGGKSEIEVPVKITLPVVDISKEILESNPEVVKKANSAGGSAGGSA [r18_114_TrMRF] | 0.486 ± 0.11 | -0.964 ± 0.33 | -0.108 ± 0.3
14 | SAGGSAGGSKKVEVEILLLLPESTTEEEAKALAEELAEKIKEATPADDVEVKVVILKVPKNALSAGGSAGGS [r12_522_TrMRF] | 2 ± 0.12 | 1.89 ± 0.048 | 1.92 ± 0.21
15 | SAGGSAGGSMTFRVEVFNKKTGKVETIEVEGSLDELKALAPPGALVKIEVDGKTITIPAEELKSAGGSAGGS [r20_36_TrROS_Hall] | 1.67 ± 0.021 | 1.75 ± 0.059 | 1.74 ± 0.057
16 | SAGGSAGGSKKPVLAKIAILNSGSPEVAEELAKRLAAELGLSPDEVKVELHVIPVTAPGELLFSAGGSAGGS [r12_1066_TrMRF] | 0.465 ± 0.02 | 0.328 ± 0.063 | 0.416 ± 0.043

Row | Sequence | folding stability dG unfold [1] [kcal/mol] | folding stability dG unfold [2] [kcal/mol] | folding stability dG unfold [3] [kcal/mol]
17 | SAGKPKVKVETVTIEVDGKKIKIEVVELENGEKLVRVEVFDENGELVETKTVTLEELKKLLEKAGIEVSAGG [r19_90_TrROS_Hall] | 1.64 ± 0.1 | 2.2 ± 0.16 | 1.84 ± 0.28
18 | SAGDVKVITIKNPDGWQASIALNEDGTVYLMFNSPDQFLDLIEDLGFPITSVEMHPNGMMIFTIELPPSAGG [r19_257_TrROS] | 2.27 ± 0.061 | 4.26 ± 0.17 | 3.41 ± 0.18
19 | SAGMKITVVELDGKSPEELSEEELKKLAEELLKELFPDVKKVKKVTVKVERLPDGRLVLVEVEIEVEEPSAG [r5_526_TrROS_Hall] | 2.18 ± 0.13 | 1.03 ± 0.089 | 1.79 ± 0.13
20 | SAGGSAGGSMPVKVITTISRETVPLPNGDPGARYTVTTTVTTDSTVVSTTTTTFSSEAELAAASAGGSAGGS [r12_461_JUSTAS] | 1.08 ± 0.035 | 0.854 ± 0.12 | 0.894 ± 0.084
21 | SAGGGPFGIPFPFPIEDPDRLDLVEGLVAELEEFFRSLGAGPLTAERVGDTTYVVLVPFDGKPIVSGSAGGS [r16_703_TrMRF] | 1.51 ± 0.025 | 1.95 ± 0.066 | 1.8 ± 0.089
22 | SAGGSAGGSAGEVEIEITKVTENEDGSETLEMTIRDKDTGKTYKLTFNKDNGILTLEEEPSAGGSAGGSAGG [r11_991_TrROS_Hall] | 1.93 ± 0.13 | 3.05 ± 0.097 | 2.43 ± 0.2
23 | SAGGSAGGSAGAPTVKLTFTVTRTETKTETLPDGTTKTETKTETRTVTLTLAPGETITVTSAGGSAGGSAGG [r11_174_TrROS_Hall] | 3.39 ± 0.084 | 4.27 ± 0.077 | 3.98 ± 0.11
24 | SAGGSAEEEVVETEVVYDPETKELHVRTKVFKPKPEITIEVDMSLEEVKALLEELTGRKIDRVEIKSAGGSA [r15_101_TrROS_Hall] | 0.433 ± 0.035 | 1.68 ± 0.05 | 1.34 ± 0.084
25 | SAGGMVIVVKTPGGATSITLGNLTITQDPSTGVAVAEATPEQVEALKKDPALKDIESIEILPEEELKSAGGS [r8_493_JUSTAS] | 0.307 ± 0.024 | 0.648 ± 0.056 | 0.458 ± 0.14
26 | TIVIENASVEQIKNAIKEAIKEGKEVKIIIKASPEEKEKIIEELKKLPEIKKVEKLPNGSIKITIKAKELKS [r1_324_TrROS_Hall] | 1.76 ± 0.083 | 2.82 ± 0.69 | 2.32 ± 0.66
27 | SAGGIIIYPKDPDGKQRPIPPEVIRRIVDTIARRYGFEIKIDIEIEPTNDYWVITIPIEIEGLPPEQLSAGG [r13_790_TrROS] | 1.87 ± 0.06 | 2.23 ± 0.068 | 2.18 ± 0.086
28 | SAGGPSVDIDPRLNEDGTPYVLATLHIVPVHSDGSSSSADIPVVFDSLDDLLAFVKAISPGSAKVSLSAGGS [r16_652_TrMRF] | 0.42 ± 0.067 | 1.27 ± 0.083 | 0.959 ± 0.058
29 | SAGMKKKKIKKVEIEIKKGEKTIRVKLENGEEIEYKFKEEDLEEALKKIAEKLGLKKGDKIKIVEIEIESAG [r5_923_TrROS_Hall] | 1.16 ± 0.12 | 0.907 ± 0.13 | 1.29 ± 0.33
30 | SAPKIDSISIMWPGNHWYISIWYPDKNGEPMKEVMFPFESPEDLKDQIEELSPPGDVTVDIYPMPPDAFSAG [r14_964_TrROS] | 1.38 ± 0.047 | 1.54 ± 0.036 | 1.51 ± 0.098
31 | SAGGSAGGEEIAKKLRDLAKKLGLDVEIKKIEVTKYPLPEGDENKEEKWVTTITITVNGKKITLSAGGSAGG [r6_686_TrROS_Hall] | 2.22 ± 0.053 | 2.53 ± 0.061 | 2.37 ± 0.081
